Target: PKM2 (pyruvate kinase M, isoform M2) (human (endogenous in HUVECs)) (UniProt P14618)
Assay: native gel or EMSA

Chain of PKM2 (pyruvate kinase M, isoform M2), P14618 1-531 (enzyme; other documents disagree on this pair) (P14618 whole entry, canonical isoform): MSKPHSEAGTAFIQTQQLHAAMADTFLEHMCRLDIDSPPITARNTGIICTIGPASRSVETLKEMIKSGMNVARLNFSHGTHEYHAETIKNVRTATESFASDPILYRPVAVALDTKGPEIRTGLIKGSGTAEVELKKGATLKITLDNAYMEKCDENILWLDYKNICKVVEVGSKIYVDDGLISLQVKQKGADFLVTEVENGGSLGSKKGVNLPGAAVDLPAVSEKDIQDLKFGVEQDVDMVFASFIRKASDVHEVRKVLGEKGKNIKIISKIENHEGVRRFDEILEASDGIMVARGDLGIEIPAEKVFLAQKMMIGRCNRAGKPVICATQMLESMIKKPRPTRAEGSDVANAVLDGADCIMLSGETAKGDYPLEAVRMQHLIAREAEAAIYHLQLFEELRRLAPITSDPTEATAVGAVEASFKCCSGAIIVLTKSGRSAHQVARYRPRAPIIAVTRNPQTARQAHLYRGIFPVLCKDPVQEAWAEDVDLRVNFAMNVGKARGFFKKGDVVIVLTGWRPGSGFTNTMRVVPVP

stoichiometry N: 2
Substance: PKM2 (pyruvate kinase M, isoform M2), P14618 1-531 (enzyme; other documents disagree on this pair)

Source: article PMC11121179
